According to patent US5286847A, “Interleukin-1 muteins, their preparation and method of use to inhibit interleukin-1 activity” (New England Medical Center Hospitals, Inc., priority 1992, dated 1994):

Experiments:
[1] = target: T1, IL-1 receptor on EL.4 cells (Mus musculus, UniProt P13504); assay: Equilibrium receptor binding of [35S]-labeled IL-1β peptides to EL.4 cells, Scatchard plot analysis; design: species or system murine; conditions: for receptor affinity compared with wild-type IL-1β (in words): equilibrium binding analyses and competitive binding studies
T1 construct: incubated with EL.4 cells; endogenous in cells; host or cells: EL.4 (murine thymoma)
T1 sequence (P13504 20-576): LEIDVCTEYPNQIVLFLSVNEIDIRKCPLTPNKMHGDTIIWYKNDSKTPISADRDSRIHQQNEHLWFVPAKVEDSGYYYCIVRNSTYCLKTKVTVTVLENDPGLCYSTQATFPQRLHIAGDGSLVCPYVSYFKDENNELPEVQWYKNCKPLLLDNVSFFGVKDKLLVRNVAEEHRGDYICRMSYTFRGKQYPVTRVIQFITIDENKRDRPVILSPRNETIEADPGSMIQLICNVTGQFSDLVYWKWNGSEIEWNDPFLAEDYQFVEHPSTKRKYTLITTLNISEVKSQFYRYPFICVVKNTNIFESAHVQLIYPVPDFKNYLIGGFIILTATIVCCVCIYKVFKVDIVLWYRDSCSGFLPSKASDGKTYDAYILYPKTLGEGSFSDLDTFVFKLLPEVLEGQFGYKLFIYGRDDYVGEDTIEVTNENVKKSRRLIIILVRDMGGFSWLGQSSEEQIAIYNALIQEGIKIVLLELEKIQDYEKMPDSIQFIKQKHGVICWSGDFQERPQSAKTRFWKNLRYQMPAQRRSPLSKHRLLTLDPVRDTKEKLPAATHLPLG
Procedure: The conversion of IL-1 molecules by mutation of specific residues gives muteins having utility as IL-1 biological activity inhibitors. Specifically disclosed is the preparation and testing of human IL-1β.
The receptor binding characteristics of the Arg127 →Gly127mutant protein were determined by Scatchard analysis and by sodium dodecyl sulfate (SDS) polyacrylamide gel analysis of specifically bound proteins (Dower et al., 1986; Jobling et al., 1988; Mosley et al., J. Biol. Chem. 1987). For the polyacrylamide gel analysis, IL-1β proteins were labeled with [^35 S]methionine during in vitro translation before cell surface receptor binding assays using EL4 6.1 C10 murine thymoma cells (Jobling et al., 1988; Mosley et al., Proc. Natl. Acad. Sci. USA, 1987; MacDonald, H. R., R. K. Lees, C. Bron [1985] J. Immunol. 135:3944) (FIG. 3). […] Equilibrium binding experiments and Scatchard plot data (Table 1) confirmed the equivalence of binding constants.

[2] = tested on: helper T-cells (D10.G4.1); assay: Biological activity: [3H]thymidine incorporation by helper T-cells (D10.G4.1) with diluted translation mixtures; format: cell-based; conditions: FIG. 2
Procedure: FIG. 2. Biological activities of IL-1β proteins. Reticulocyte translation mixtures were incubated and assayed in the thymocyte co-stimulation assay as described previously (Jobling et al., 1988). The results are presented as [^3 H]thymidine incorporation (counts/minute)at various final dilutions of the translation mixtures.
The IL-1β proteins were synthesized by in vitro translation of SP6 or T7 messenger RNAs. In vitro protein synthesis was performed as described previously (Jobling et al., 1988; Jobling, S. A., and L. Gehrke [1987] Nature 325:622-625). The translational efficiency of all construct mRNAs was increased by replacing the untranslated leader sequence of the IL-1β mRNA with that of alfalfa mosaic virus RNA (Jobling et al., 1988; Jobling et al., 1987). All IL-1β protein translation products contain the amino-terminal methionine residue added during initiation of protein synthesis. The biological activity of the translation products was tested by quantitating [^3 H]thymidine incorporation by helper T-cells (D10.G4.1) (Kaye, Y., S. Porcelli, J. Tite, B. Jones, C. A. Janeway [1983] J. Exp. Med. 158:836-856) incubated in the presence of diluted translation reaction mixtures (FIG. 2).

[3] = target: T2, EL4 cell receptors (IL-1 receptor) (Mus musculus, UniProt P13504); assay: Competitive receptor binding against [35S]-labeled mature IL-1β on EL.4 thymoma cells; design: species or system murine; conditions: 37° C., concentrations up to a five-fold molar excess, FIG. 4
T2 construct: incubating EL.4 thymoma cells; endogenous in cells; host or cells: EL.4 thymoma cells
T2 sequence (P13504 20-576): T1 sequence (P13504 20-576)
Procedure: FIG. 4. Competitive receptor binding. A constant amount of radioactive mature IL-1β protein was added to 1.9×10^7 EL.4 cells in binding medium. The results are presented as a percentage of radioactive IL-1β which bound specifically in the absence of competitor. The 100% value represents approximately 30,000 cpm.
As a further analysis of the receptor binding properties, nonradioactive proteins were used to complete with [^35 S]-labeled wild-type mature IL-1β for binding to EL4 cell receptors (FIG. 4). Competitive receptor binding was performed by incubating EL.4 thymoma cells at 37° C. in the presence of a constant level of [^35 S]-labeled mature IL-1β protein and increasing concentrations of non-radioactiveIL-1β competitor translation products. […] The amount of IL-1β protein synthesized by in vitro translation was determined by specific radioactivity using a radioactive IL-1β protein standard which was quantitated by radioimmune assay. […] The cells were solubilized in lysis buffer (50 mM sodium phosphate, pH 7; 10 mM ethylenediaminetetraacetic acid (EDTA); 0.1% TRITON™ X-100; 0.1% sarkosyl; 10 mM β-mercaptoethanol) before quantitation of bound radioactivity by liquid scintillation counting. […]

[4] = target: T3, cell surface receptor of EL4 6.1 C10 murine thymoma cells (Mus musculus, UniProt P13504); assay: SDS polyacrylamide gel analysis of specifically bound [35S]-labeled IL-1β proteins; format: binding; conditions: FIG. 3
T3 construct: endogenous in cells; host or cells: EL4 6.1 C10 murine thymoma cells
T3 sequence (P13504 20-576): T1 sequence (P13504 20-576)
Procedure: FIG. 3. Analysis of receptor binding. [^35 S]-labeled IL-1β proteins were incubated at 4° C. with murine EL.4 cells in the absence (-) or presence (+) or nonradioactive competitor recombinant IL-1β protein. Following incubation, the cells were sedimented through silicone oil as described previously (Jobling et al., 1988). The IL-1β proteins are identified at the top of the figure by numbers corresponding to amino acid positions. IL1(1-269) is proIL-1β, while IL1(117-269) corresponds to the mature IL-1β protein. The "native" and "Gly127 " notations at the bottom of the figure refer to the wild-type mature protein (Arg127) and the Arg127 →Gly127 mutein, respectively.
The receptor binding characteristics of the Arg127 →Gly127mutant protein were determined by Scatchard analysis and by sodium dodecyl sulfate (SDS) polyacrylamide gel analysis of specifically bound proteins (Dower et al., 1986; Jobling et al., 1988; Mosley et al., J. Biol. Chem. 1987). For the polyacrylamide gel analysis, IL-1β proteins were labeled with [^35 S]methionine during in vitro translation before cell surface receptor binding assays using EL4 6.1 C10 murine thymoma cells (Jobling et al., 1988; Mosley et al., Proc. Natl. Acad. Sci. USA, 1987; MacDonald, H. R., R. K. Lees, C. Bron [1985] J. Immunol. 135:3944) (FIG. 3). […]

[5] = target: T1, IL-1 receptor on EL.4 cells; conditions: Jobling et al., 1988; cited from earlier work
[6] = literature (Huang et al. 1987; Jobling et al. 1988); cited from earlier work

Substance | Relative binding (receptor binding affinity in relation to mature wild-type IL-1β = 100%) ([1]; EL.4 cells, 4° C.) [%] | receptor affinity compared with wild-type IL-1β (in words) ([1]; listed as Arg127 →Gly127 mutant form of IL-1β) | receptor affinity compared with wild-type IL-1β (in words) ([1]; listed as Arg127 →Gly127 mutant protein) | biological activity (half maximal), fold less than wild-type mature IL-1β [2] | biological activity relative to that induced by mature IL-1β [2] [%] | half maximal biological activity compared with proIL-1β [2] | competition with [35S]-labeled wild-type mature IL-1β for binding (in words) [3] | receptor binding properties by intensity of bound protein bands, compared with native mature IL-1β [4] | affinity for receptor, fold less than that of mature IL-1β [5] [fold] | biological activity (in words) [6]
Arg127 →Gly127 mutant: human mature IL-1β mutein made by site-directed mutagenesis of the IL-1β cDNA converting Arg127 to Gly127 | 107 | equal affinity | indistinguishable from that of the wild-type IL-1β protein | at least 100 fold | 1 | greater than that of proIL-1β | reproducibly competed more effectively than the wild-type mature IL-1β | similar |  | 
proIL-1β: human IL-1β 31,000 dalton precursor protein, 269 amino acids |  |  |  |  |  |  | competed minimally |  | 30 | relatively low, but distinct biological activity
